Assay results as given in patent publication US20210338724A1.

Columns and labels:
[1] = molecular target: IL-2Rβ and common γ chain on 32Dβ cells; experiment: cell-based or functional assay
TGFβ1 (R&D systems) = TGFβ1 (R&D systems) (UniProt P01137); experiment: cell-based or functional assay
[2] = molecular target: IL-2Rα, IL-2Rβ and common γ chain on CTLL-2 cells; experiment: cell-based or functional assay
[3] = molecular target: IL-18/TF/IL-15:IL-12/IL-15RαSu protein complex (18t15-12s) (human); experiment: sandwich ELISA; the concentration is that of the titrated 18t15-12s; anti-human tissue factor capture, D045-6 detection at a fixed concentration
Chain of IL-18/TF/IL-15:IL-12/IL-15RαSu protein complex (18t15-12s) (human) (chain, as listed by the source, chain 1 of 2): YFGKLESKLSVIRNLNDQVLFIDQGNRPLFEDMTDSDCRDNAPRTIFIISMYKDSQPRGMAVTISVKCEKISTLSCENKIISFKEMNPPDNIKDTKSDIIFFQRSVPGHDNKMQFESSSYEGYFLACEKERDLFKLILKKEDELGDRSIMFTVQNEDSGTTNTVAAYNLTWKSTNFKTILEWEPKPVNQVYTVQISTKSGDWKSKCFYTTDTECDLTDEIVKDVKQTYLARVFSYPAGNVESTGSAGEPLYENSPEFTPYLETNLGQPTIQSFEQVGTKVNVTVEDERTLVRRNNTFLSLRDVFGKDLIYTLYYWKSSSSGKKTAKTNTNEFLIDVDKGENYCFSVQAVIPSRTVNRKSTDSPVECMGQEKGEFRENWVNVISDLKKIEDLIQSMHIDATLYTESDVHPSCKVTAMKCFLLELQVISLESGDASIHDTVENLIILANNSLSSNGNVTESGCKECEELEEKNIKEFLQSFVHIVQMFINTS
Chain of IL-18/TF/IL-15:IL-12/IL-15RαSu protein complex (18t15-12s) (human) (chain, as listed by the source, chain 2 of 2): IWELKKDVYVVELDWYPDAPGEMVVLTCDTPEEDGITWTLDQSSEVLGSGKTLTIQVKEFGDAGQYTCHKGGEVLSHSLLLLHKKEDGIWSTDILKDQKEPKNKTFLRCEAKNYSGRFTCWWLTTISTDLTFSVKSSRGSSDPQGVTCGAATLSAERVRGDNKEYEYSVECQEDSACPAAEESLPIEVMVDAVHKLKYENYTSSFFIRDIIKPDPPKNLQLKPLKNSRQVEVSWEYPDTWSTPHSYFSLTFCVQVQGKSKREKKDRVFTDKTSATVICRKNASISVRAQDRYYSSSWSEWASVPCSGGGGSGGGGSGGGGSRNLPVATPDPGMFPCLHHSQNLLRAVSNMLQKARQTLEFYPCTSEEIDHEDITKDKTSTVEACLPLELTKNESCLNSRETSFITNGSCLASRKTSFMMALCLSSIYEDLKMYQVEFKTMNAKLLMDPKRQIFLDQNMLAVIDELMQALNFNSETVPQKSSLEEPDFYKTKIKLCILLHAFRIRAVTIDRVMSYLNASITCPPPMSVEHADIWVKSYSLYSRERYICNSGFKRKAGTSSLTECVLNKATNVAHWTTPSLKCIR

[4] = molecular target: IL-18/TF/IL-15:IL-12/IL-15RαSu protein complex (18t15-12s) (human); experiment: sandwich ELISA; the concentration is that of the titrated 18t15-12s; anti-human tissue factor capture, BAM 247 detection at a fixed concentration

Chain of UniProt P01137 (P01137 279-390 limits assumed): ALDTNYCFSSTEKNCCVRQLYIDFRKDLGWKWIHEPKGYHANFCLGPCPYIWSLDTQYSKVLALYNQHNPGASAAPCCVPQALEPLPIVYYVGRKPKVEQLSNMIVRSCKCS

Substance	EC50, 32Dβ cell proliferation (WST1) [1] [nM]	EC50, CTLL-2 cell proliferation (WST1) [2] [nM]	further results
recombinant IL-15 (from UniProt P40933 49-162) (ligand)	0.0106	–	–
TGFR-Fc (R&D Systems) (Fc fusion)	–	–	IC50, inhibition of TGFβ1 activity in HEK-Blue TGFβ reporter cells (QUANTI-Blue OD) (TGFβ1 (R&D systems)): 0.461 nM
recombinant IL2 (Proleukin) (from UniProt P60568 22-153) (ligand)	0.0655	0.253	–
biotinylated anti-human IL-18 detection antibody (D045-6)	–	–	EC50 (read off the curve) [3]: 0.03 mg/L
recombinant IL-2 (from UniProt P60568 21-153) (ligand)	0.14	0.548	–
biotinylated anti-human IL-15 detection antibody (BAM 247)	–	–	EC50 (read off the curve) [4]: 0.01 mg/L
